The target of test [1] is human MCSP expressed on tumor cells (Colo-38, WM266-4, A375, MV-3, HCT-116) (human, UniProt Q6UVK1 30-2322). The test is described as follows: cell-based or functional assay.
The target of test [2] is T1, hu-MCSP(D3 domain)-avi-his (human, UniProt Q6UVK1 1582-2224).
T1 construct: Recombinant D3 domain with avi and his tags; also called human MCSP(D3 domain)-avi-his; Human MCSP D3
T1 sequence: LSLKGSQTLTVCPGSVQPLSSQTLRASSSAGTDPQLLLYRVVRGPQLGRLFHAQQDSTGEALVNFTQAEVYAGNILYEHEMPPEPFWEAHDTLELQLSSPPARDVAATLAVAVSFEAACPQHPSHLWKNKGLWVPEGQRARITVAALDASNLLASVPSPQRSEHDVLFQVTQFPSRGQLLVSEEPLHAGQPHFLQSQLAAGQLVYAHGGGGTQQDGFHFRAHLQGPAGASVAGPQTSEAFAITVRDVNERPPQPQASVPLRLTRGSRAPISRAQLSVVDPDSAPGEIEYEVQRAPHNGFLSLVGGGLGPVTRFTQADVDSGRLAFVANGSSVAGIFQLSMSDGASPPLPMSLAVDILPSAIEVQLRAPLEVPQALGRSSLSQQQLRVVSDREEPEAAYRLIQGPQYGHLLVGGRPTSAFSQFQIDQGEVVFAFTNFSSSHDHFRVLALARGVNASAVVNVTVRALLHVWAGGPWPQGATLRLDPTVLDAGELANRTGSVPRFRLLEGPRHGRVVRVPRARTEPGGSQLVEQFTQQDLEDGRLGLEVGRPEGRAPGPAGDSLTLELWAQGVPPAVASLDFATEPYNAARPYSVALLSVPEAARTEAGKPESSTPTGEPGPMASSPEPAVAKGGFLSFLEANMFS
The test is described as follows: SPR ProteOn XPR36, 25 C; Fab captured via anti-human F(ab')2, MCSP D3 as analyte. As to the method:
Briefly, carboxymethylated dextran biosensor chips (CM5, GE Healthcare) were activated with N-ethyl-N′-(3-dimethylaminopropyl)-carbodiimide hydrochloride (EDC) and N-hydroxysuccinimide (NHS) according to the supplier's instructions. Anti-human F(ab′)2 fragment specific capture antibody was diluted with 10 mM sodium acetate, pH 5.0 at 50 μg/ml before injection at a flow rate of 10 μl/minute to achieve approximately up to 10.000 response units (RU) of coupled capture antibody. Following the injection of the capture antibody, 1 M ethanolamine is injected to block unreacted groups. For kinetics measurements, Fabs from bacterial supernatant or purified Fabs were injected at a flow rate of 10 μl/minute for 300 s and a dissociation of 300 s for capture baseline stabilization. […] The surface of the sensorchip was regenerated by injection of glycine pH 1.5 for 30 s at 90 μl/min followed by injection of NaOH for 20 s at the same flow rate. Association rates (kₒₙ) and dissociation rates (koff) were calculated using a simple one-to-one Langmuir binding model (ProteOn XPR36 Evaluation Software or Scrubber software (BioLogic)) by simultaneously fitting the association and dissociation sensorgrams. The equilibrium dissociation constant (KD) was calculated as the ratio koff/kₒₙ.

Sequence of human MCSP expressed on tumor cells (Colo-38, WM266-4, A375, MV-3, HCT-116) (Q6UVK1 30-2322): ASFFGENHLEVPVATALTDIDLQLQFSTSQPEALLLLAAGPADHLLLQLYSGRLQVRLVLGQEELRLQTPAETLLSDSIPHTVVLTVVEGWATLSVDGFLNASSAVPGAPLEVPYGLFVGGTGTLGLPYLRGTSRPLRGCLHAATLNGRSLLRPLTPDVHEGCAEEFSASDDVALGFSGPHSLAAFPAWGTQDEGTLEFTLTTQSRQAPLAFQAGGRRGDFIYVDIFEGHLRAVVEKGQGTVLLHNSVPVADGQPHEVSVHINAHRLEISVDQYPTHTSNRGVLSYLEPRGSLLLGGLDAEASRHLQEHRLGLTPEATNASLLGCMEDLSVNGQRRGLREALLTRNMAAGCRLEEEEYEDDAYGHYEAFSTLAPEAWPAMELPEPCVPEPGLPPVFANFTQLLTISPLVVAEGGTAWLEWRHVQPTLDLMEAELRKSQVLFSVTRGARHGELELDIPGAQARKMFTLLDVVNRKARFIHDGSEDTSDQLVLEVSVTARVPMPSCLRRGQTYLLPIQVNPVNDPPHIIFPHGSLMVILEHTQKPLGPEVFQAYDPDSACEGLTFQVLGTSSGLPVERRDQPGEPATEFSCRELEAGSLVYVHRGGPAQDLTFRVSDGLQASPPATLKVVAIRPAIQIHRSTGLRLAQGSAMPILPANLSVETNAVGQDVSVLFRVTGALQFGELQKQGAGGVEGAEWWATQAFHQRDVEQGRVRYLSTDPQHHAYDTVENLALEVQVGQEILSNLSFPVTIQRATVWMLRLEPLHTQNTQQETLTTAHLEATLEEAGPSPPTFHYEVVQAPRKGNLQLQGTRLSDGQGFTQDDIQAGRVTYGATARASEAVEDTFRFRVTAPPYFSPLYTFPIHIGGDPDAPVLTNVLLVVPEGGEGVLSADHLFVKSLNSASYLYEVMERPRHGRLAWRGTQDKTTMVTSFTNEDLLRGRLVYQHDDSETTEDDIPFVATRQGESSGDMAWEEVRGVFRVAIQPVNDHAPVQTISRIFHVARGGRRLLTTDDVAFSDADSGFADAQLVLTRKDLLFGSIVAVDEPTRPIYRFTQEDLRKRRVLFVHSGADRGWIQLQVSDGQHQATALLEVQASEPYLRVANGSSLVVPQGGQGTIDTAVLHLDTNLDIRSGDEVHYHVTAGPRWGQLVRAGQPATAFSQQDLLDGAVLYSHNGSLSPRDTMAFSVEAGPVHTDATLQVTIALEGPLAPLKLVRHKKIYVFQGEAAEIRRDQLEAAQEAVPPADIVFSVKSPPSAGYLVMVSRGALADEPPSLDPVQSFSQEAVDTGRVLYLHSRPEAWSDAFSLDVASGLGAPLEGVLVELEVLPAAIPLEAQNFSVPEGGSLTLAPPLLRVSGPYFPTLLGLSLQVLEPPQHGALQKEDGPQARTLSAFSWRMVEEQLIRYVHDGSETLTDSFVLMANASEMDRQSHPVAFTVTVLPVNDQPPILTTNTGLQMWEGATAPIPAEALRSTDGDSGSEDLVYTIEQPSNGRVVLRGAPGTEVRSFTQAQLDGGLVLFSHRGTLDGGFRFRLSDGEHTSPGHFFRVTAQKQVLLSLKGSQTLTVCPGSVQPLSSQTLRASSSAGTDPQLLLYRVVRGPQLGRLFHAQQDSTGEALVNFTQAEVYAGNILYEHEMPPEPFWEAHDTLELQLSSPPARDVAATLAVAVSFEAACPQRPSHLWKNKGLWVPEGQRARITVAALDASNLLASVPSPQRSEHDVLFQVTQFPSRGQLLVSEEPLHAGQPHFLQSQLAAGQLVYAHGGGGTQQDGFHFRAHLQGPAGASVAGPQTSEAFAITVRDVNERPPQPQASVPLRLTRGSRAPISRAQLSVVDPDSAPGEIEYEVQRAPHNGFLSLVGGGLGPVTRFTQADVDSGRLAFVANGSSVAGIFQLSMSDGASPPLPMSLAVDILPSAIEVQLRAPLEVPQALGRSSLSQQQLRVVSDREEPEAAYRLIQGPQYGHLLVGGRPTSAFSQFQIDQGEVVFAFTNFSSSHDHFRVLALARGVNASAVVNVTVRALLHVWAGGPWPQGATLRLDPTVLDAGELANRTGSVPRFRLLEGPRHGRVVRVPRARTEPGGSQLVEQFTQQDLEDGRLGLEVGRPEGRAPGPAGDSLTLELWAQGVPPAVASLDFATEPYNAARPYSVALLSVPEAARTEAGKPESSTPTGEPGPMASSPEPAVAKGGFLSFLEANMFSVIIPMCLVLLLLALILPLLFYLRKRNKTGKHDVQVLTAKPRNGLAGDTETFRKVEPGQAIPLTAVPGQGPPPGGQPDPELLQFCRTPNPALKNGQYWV

B1: 1 + 1 CrossMab; CL/CH1 exchange (LC007/V9) (anti-MCSP/anti-huCD3) (bispecific antibody)
chain 1: DIVLTQSPSSLSASLGDRVTISCSASQGIRNYLNWYQQRPDGTVKLLIYYTSSLHSGVPSRFSGSGSGTDYSLTISNLEPEDIATYYCQQYSKLPWTFGGGTKLEIKRTVAAPSVFIFPPSDEQLKSGTASVVCLLNNFYPREAKVQWKVDNALQSGNSQESVTEQDSKDSTYSLSSTLTLSKADYEKHKVYACEVTHQGLSSPVTKSFNRGEC
chain 2: EVQLQESGPGLVKPSQSLSLTCSVTGYSITSGYYWNWIRQFPGNKLEWMGYITYDGSNNYNPSLKNRISITRDTSKNQFFLKLNSVTTEDTATYYCADFDYWGQGTTLTVSSASTKGPSVFPLAPSSKSTSGGTAALGCLVKDYFPEPVTVSWNSGALTSGVHTFPAVLQSSGLYSLSSVVTVPSSSLGTQTYICNVNHKPSNTKVDKKVEPKSCDKTHTCPPCPAPEAAGGPSVFLFPPKPKDTLMISRTPEVTCVVVDVSHEDPEVKFNWYVDGVEVHNAKTKPREEQYNSTYRVVSVLTVLHQDWLNGKEYKCKVSNKALGAPIEKTISKAKGQPREPQVCTLPPSRDELTKNQVSLSCAVKGFYPSDIAVEWESNGQPENNYKTTPPVLDSDGSFFLVSKLTVDKSRWQQGNVFSCSVMHEALHNHYTQKSLSLSPGK
chain 3: DIQMTQSPSSLSASVGDRVTITCRASQDIRNYLNWYQQKPGKAPKLLIYYTSRLESGVPSRFSGSGSGTDYTLTISSLQPEDFATYYCQQGNTLPWTFGQGTKVEIKSSASTKGPSVFPLAPSSKSTSGGTAALGCLVKDYFPEPVTVSWNSGALTSGVHTFPAVLQSSGLYSLSSVVTVPSSSLGTQTYICNVNHKPSNTKVDKKVEPKSC
chain 4: not shown
In the case of B1, in test [1], the “EC50 of T cell-mediated killing (LDH release), MV-3 cells, human PBMCs E:T 10:1, 21 h” value amounted to 0.0884 nM and the “EC50 of T cell-mediated killing (LDH release), WM266-4 cells, human PBMCs E:T 10:1, 21 h” value amounted to 0.0539 nM.

B2: 2 + 1 IgG Crossfab; CL/CH1 exchange (M4-3 ML2/V9) (anti-MCSP/anti-huCD3) (bispecific antibody)
chain 1: DIQMTQSPSSLSASVGDRVTITCRASQDIRNYLNWYQQKPGKAPKLLIYYTSRLESGVPSRFSGSGSGTDYTLTISSLQPEDFATYYCQQGNTLPWTFGQGTKVEIKSSASTKGPSVFPLAPSSKSTSGGTAALGCLVKDYFPEPVTVSWNSGALTSGVHTFPAVLQSSGLYSLSSVVTVPSSSLGTQTYICNVNHKPSNTKVDKKVEPKSC
chain 2: not shown
chain 3: QVQLQESGPGLVKPSQTLSLTCTVSGGSITSGYYWNWIRQHPGKGLEWIGYITYDGSNNYNPSLKSRVTISRDTSKNQFSLKLSSVTAADTAVYYCADFDYWGQGTLVTVSSASTKGPSVFPLAPSSKSTSGGTAALGCLVKDYFPEPVTVSWNSGALTSGVHTFPAVLQSSGLYSLSSVVTVPSSSLGTQTYICNVNHKPSNTKVDKKVEPKSCDKTHTCPPCPAPEAAGGPSVFLFPPKPKDTLMISRTPEVTCVVVDVSHEDPEVKFNWYVDGVEVHNAKTKPREEQYNSTYRVVSVLTVLHQDWLNGKEYKCKVSNKALGAPIEKTISKAKGQPREPQVCTLPPSRDELTKNQVSLSCAVKGFYPSDIAVEWESNGQPENNYKTTPPVLDSDGSFFLVSKLTVDKSRWQQGNVFSCSVMHEALHNHYTQKSLSLSPGK
chain 4: not shown
For the molecule B2, in test [1], the “EC50 of T cell-mediated killing (LDH release), MV-3 cells, human PBMCs E:T 10:1, 27 h” value was approximately 0.0117 nM and the “EC50 of T cell-mediated killing (LDH release), WM266-4 cells, human PBMCs E:T 10:1, 26 h” value came to 0.0129 nM.

B3: 2 + 1 IgG Crossfab; VL/VH exchange (M4-3 ML2/V9) (anti-MCSP/anti-huCD3) (bispecific antibody)
chain 1: EVQLVESGGGLVQPGGSLRLSCAASGYSFTGYTMNWVRQAPGKGLEWVALINPYKGVSTYNQKFKDRFTISVDKSKNTAYLQMNSLRAEDTAVYYCARSGYYGDSDWYFDVWGQGTLVTVSSASVAAPSVFIFPPSDEQLKSGTASVVCLLNNFYPREAKVQWKVDNALQSGNSQESVTEQDSKDSTYSLSSTLTLSKADYEKHKVYACEVTHQGLSSPVTKSFNRGEC
chain 2: not shown
chain 3: not shown
chain 4: QVQLQESGPGLVKPSQTLSLTCTVSGGSITSGYYWNWIRQHPGKGLEWIGYITYDGSNNYNPSLKSRVTISRDTSKNQFSLKLSSVTAADTAVYYCADFDYWGQGTLVTVSSASTKGPSVFPLAPSSKSTSGGTAALGCLVKDYFPEPVTVSWNSGALTSGVHTFPAVLQSSGLYSLSSVVTVPSSSLGTQTYICNVNHKPSNTKVDKKVEPKSCDKTHTCPPCPAPEAAGGPSVFLFPPKPKDTLMISRTPEVTCVVVDVSHEDPEVKFNWYVDGVEVHNAKTKPREEQYNSTYRVVSVLTVLHQDWLNGKEYKCKVSNKALGAPIEKTISKAKGQPREPQVCTLPPSRDELTKNQVSLSCAVKGFYPSDIAVEWESNGQPENNYKTTPPVLDSDGSFFLVSKLTVDKSRWQQGNVFSCSVMHEALHNHYTQKSLSLSPGK
With B3, in test [1], the “EC50 of T cell-mediated killing (LDH release), MV-3 cells, human PBMCs E:T 10:1, 27 h” value was approximately 0.0822 nM and the “EC50 of T cell-mediated killing (LDH release), WM266-4 cells, human PBMCs E:T 10:1, 26 h” value is 0.0168 nM.

B4: Parental M4-3/ML2 Fab (Fab, V domains shown)
VH: QVQLQESGPGLVKPSQTLSLTCTVSGGSITSGYYWNWIRQHPGKGLEWIGYITYDGSNNYNPSLKSRVTISRDTSKNQFSLKLSSVTAADTAVYYCADFDYWGQGTLVTVSS
VL: DIQMTQSPSSLSASVGDRVTITCRASQGIRNYLNWYQQKPGKAPKLLIYYTSSLHSGVPSRFSGSGSGTDFTLTISSLQPEDFATYYCQQYSKLPWTFGQGTKVEIK
notes: Soluble Fab with Flag tag, bacterial supernatant or purified; also called non-matured parental clone
Usually Kd stands for the equilibrium constant for the complex coming apart. A high value points to a looser complex. In test [2], B4 registered a Kd of 5 nM.

B5: M4-3(D6)/ML2 Fab (Fab, V domains shown)
VH: QVQLQESGPGLVKPSQTLSLTCTVSGGSITSGYYWNWIRQHPGKGLEWIGYITFDGKNNYNPSLKSRVTISRDTSKNQFSLKLSSVTAADTAVYYCADFDYWGQGTLVTVSS
VL: DIQMTQSPSSLSASVGDRVTITCRASQGIRNYLNWYQQKPGKAPKLLIYYTSSLHSGVPSRFSGSGSGTDFTLTISSLQPEDFATYYCQQYSKLPWTFGQGTKVEIK
notes: Soluble Fab with Flag tag
B5 registered a Kd in test [2] of 2 nM.

B6: M4-3(C1)/ML2 Fab (Fab, V domains shown)
VH: QVQLQESGPGLVKPSQTLSLTCTVSGGSITSGYYWNWIRQHPGKGLEWIGYITFDGSNNYNPSLKSRVTISRDTSKNQFSLKLSSVTAADTAVYYCADFDYWGQGTLVTVSS
VL: DIQMTQSPSSLSASVGDRVTITCRASQGIRNYLNWYQQKPGKAPKLLIYYTSSLHSGVPSRFSGSGSGTDFTLTISSLQPEDFATYYCQQYSKLPWTFGQGTKVEIK
notes: Soluble Fab with Flag tag
In test [2], B6 returned a Kd of 0.6 nM.

B7: M4-3(B8)/ML2 Fab (Fab, V domains shown)
VH: QVQLQESGPGLVKPSQTLSLTCTVSGGSITSGYYWNWIRQHPGKGLEWIGYITFDGRNNYNPSLKSRVTISRDTSKNQFSLKLSSVTAADTAVYYCADFDYWGQGTLVTVSS
VL: DIQMTQSPSSLSASVGDRVTITCRASQGIRNYLNWYQQKPGKAPKLLIYYTSSLHSGVPSRFSGSGSGTDFTLTISSLQPEDFATYYCQQYSKLPWTFGQGTKVEIK
notes: Soluble Fab with Flag tag
B7 returned a Kd in test [2] of 0.3 nM.

B8: M4-3/ML2(C5) Fab (Fab, V domains shown)
VH: QVQLQESGPGLVKPSQTLSLTCTVSGGSITSGYYWNWIRQHPGKGLEWIGYITYDGSNNYNPSLKSRVTISRDTSKNQFSLKLSSVTAADTAVYYCADFDYWGQGTLVTVSS
VL: DIQMTQSPSSLSASVGDRVTITCRASRGIREYLNWYQQKPGKAPKLLIYYTGSLHSGVPSRFSGSGSGTDFTLTISSLQPEDFATYYCQQYSELPWTFGQGTKVEIK
notes: Soluble Fab with Flag tag
Turning to B8, the affinity in test [2], expressed as Kd, was 0.7 nM.

B9: M4-3/ML2(E10) Fab (Fab, V domains shown)
VH: QVQLQESGPGLVKPSQTLSLTCTVSGGSITSGYYWNWIRQHPGKGLEWIGYITYDGSNNYNPSLKSRVTISRDTSKNQFSLKLSSVTAADTAVYYCADFDYWGQGTLVTVSS
VL: DIQMTQSPSSLSASVGDRVTITCRASYGIRGYLNWYQQKPGKAPKLLIYYTSSLHSGVPSRFSGSGSGTDFTLTISSLQPEDFATYHCQQYSKLPWTFGQGTKVEIK
notes: Soluble Fab with Flag tag
In turn, B9 displayed a Kd in test [2] of 0.7 nM.

B10: M4-3/ML2(G3) Fab (Fab, V domains shown)
VH: QVQLQESGPGLVKPSQTLSLTCTVSGGSITSGYYWNWIRQHPGKGLEWIGYITYDGSNNYNPSLKSRVTISRDTSKNQFSLKLSSVTAADTAVYYCADFDYWGQGTLVTVSS
VL: DIQMTQSPSSLSASVGDRVTITCRASQGIRNYLNWYQQKPGKAPKLLIYYTSSLHSGVPSRFSGSGSGTDYTLTISSLQPEDFATYYCQQYSALPWTFGQGTKVEIK
notes: Soluble Fab with Flag tag
Consider B10, for which the Kd in test [2] turned out to be 0.4 nM.

B11: M4-3(A7)/ML2 Fab (Fab, V domains shown)
VH: QVQLQESGPGLVKPSQTLSLTCTVSGGSITDGYYWNWIRQHPGKGLEWIGYITFDGRNNYNPSLKSRVTISRDTSKNQFSLKLSSVTAADTAVYYCADFDYWGQGTLVTVSS
VL: DIQMTQSPSSLSASVGDRVTITCRASQGIRNYLNWYQQKPGKAPKLLIYYTSSLHSGVPSRFSGSGSGTDFTLTISSLQPEDFATYYCQQYSKLPWTFGQGTKVEIK
notes: Soluble Fab with Flag tag
For B11, in test [2], the Kd was 0.02 nM.

These data come from patent US20140242080A1 (Hoffmann-La Roche, published 2014).
